Source: publication PMC7217667

B1: LOC_Os03g35920 promoter probe (dsDNA)
DNA 1: GATCTGCATTTGTTAGTTCACCAGCAC
DNA 2: GTGCTGGTGAACTAACAAATGCAGATC
B2: LOC_Os09g36730 promoter probe (dsDNA)
DNA 1: ACCTCACTTTACACCTACCTTGAAGGTT
DNA 2: AACCTTCAAGGTAGGTGTAAAGTGAGGT
B3: LOC_Os01g50750 promoter probe (dsDNA)
DNA 1: CACCTAAACAAAACCAAACACAAGC
DNA 2: GCTTGTGTTTGGTTTTGTTTAGGTG
B4: LOC_Os01g04080 promoter probe (dsDNA)
DNA 1: CCAAATAAACGAGAAAACGGCAAAGGCATATGTCATTCAC
DNA 2: GTGAATGACATATGCCTTTGCCGTTTTCTCGTTTATTTGG
B5: OsMYB80 promoter OsMYB80-1 probe (dsDNA)
DNA 1: TGAACCTAAGGCTGTAAATTTGTTCGGACAAAGGATCATT
DNA 2: AATGATCCTTTGTCCGAACAAATTTACAGCCTTAGGTTCA
B6: LOC_Os08g20200 promoter probe (dsDNA)
DNA 1: TAAGCCAGCTACAACTGACCAACTC
DNA 2: GAGTTGGTCAGTTGTAGCTGGCTTA
B7: LOC_Os04g51990 promoter probe (dsDNA)
DNA 1: CTGCAGGAAATGGAAAACCATCTTATAGAAG
DNA 2: CTTCTATAAGATGGTTTTCCATTTCCTGCAG
B8: LOC_Os06g11135 promoter probe (dsDNA)
DNA 1: TCTACCCTCACCAACCACGCTCCCA
DNA 2: TGGGAGCGTGGTTGGTGAGGGTAGA
B9: LOC_Os08g38810 promoter probe (dsDNA)
DNA 1: CCTGGTCAGTCCTGTTGCACGGCTATATG
DNA 2: CATATAGCCGTGCAACAGGACTGACCAGG
B10: LOC_Os01g27170 promoter probe (dsDNA)
DNA 1: CCATCAAAATATATTGACTGTTGGATTTAATG
DNA 2: CATTAAATCCAACAGTCAATATATTTTGATGG
B11: LOC_Os07g40830 promoter probe (dsDNA)
DNA 1: CACGCATTCAGGAAACCAGAAGGATC
DNA 2: GATCCTTCTGGTTTCCTGAATGCGTG
B12: OsMYB80 promoter OsMYB80-2 probe (dsDNA)
DNA 1: ACTCATAGCCTGCTATGTTCACAAGGTTTTATATTACTGA
DNA 2: TCAGTAATATAAAACCTTGTGAACATAGCAGGCTATGAGT

Biological target: T1, OsMYB80 (rice, UniProt Q7XQN1 1-372)
T1 sequence: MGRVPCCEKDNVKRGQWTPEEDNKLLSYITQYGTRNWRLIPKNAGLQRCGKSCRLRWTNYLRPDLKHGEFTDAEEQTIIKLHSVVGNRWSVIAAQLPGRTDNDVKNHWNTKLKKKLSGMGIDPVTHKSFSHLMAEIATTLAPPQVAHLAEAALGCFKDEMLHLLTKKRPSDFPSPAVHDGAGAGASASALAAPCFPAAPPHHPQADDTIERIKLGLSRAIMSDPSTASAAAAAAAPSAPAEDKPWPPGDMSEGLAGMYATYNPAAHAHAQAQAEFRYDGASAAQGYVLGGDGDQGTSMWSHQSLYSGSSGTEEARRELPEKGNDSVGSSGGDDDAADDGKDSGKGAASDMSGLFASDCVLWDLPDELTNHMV
Experiment: EMSA

| Binder | binding result |
| --- | --- |
| B1 | binds |
| B2 | binds |
| B3 | binds |
| B4 | binds |
| B5 | binds |
| B6 | binds |
| B7 | binds |
| B8 | binds |
| B9 | binds |
| B10 | binds |
| B11 | binds |
| B12 | binds |
